Assay results: the supplement of paper PMC7877785
± gives the uncertainty stated by the source.

Experiment: self-splicing fitness, log relative to wild type (ln ratio); higher = more splicing; Tetrahymena group I intron in knt gene, E. coli kanamycin selection, DiMSum; sequences stand for … in CUCUCU…GGAGGGAAAAGUUAUCAGGCAUGCACCUGGUAGCUAGUCUUUAAACCAAUAGAUUGCAUCGGUUUAAAAGGCAAGACCGUCAAAUUGCGGGAAAGGGGUCAACAGCCGUUCAGUACCAAGUCUCAGGGGAAACUUUGAGAUGGCCUUGCAAAGGGUAUGGUAAUAAGCUGACGGACAUGGUCCUAACCACGCAGCCAAGUCCUAAGUCAACAGAUCUUCUGUUGAUAUGGAUGCAGUUCACAGACUAAAUGUCGGUCGGGGAAGAUGUAUUCUUCUCAUAAGAUAUAGUCGGACCUCUCCUUAAUGGGAGCUAGCGGAUGAAGUGAUGCAACACUGGAGCCGCUGGGAACUAAUUUGUAUGCGAAAGUAUAUUGAUUAGUUUUGGAGUACUCGUGGUCG
Procedure, shortened: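 Pooled colonies went to amplicon sequencing on an Illumina HiSeq 2500 after six replicate transformations. The plates were LB agar with 100 μg/mL carbenicillin, 50 μM IPTG and 0.2% rhamnose, with or without 25 μg/mL kanamycin, incubated overnight at 37°C or 30°C. The E. coli BL21(DE3) library had all eight P1ex-region intron nucleotides randomised, the intron placed in the knt kanamycin-resistance gene on pET-22b(+). DiMSum fitness is the error-weighted combination of replicate fold changes, kanamycin against none, normalised to wild type.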

Row | Sequence | self-splicing fitness (ln) (30 °C) | self-splicing fitness (ln) (37 °C)
1 | GUAGAGCAAUAUUACGGCGU | -0.532 ± 0.077 | 0.0227 ± 0.088
2 | GUGAAGCAAUAUUACGGUAU | -1.47 ± 0.076 | -0.418 ± 0.1
3 | GCAUAGCAAUAUUACGACAC | 0.147 ± 0.14 | -0.214 ± 0.19
4 | GCGCAGCAAUAUUACGCCUA | -0.46 ± 0.24 | 0.407 ± 0.16
5 | CAAAAGCAAUAUUACGCCAU | -3.4 ± 0.2 | -2.61 ± 0.23
6 | CGAGAGCAAUAUUACGACGC | -1.91 ± 0.42 | 
7 | CAAUAGCAAUAUUACGUUAU | -4.87 ± 0.34 | -1.57 ± 0.18
8 | CUCGAGCAAUAUUACGUACG | -3.49 ± 0.22 | -2.86 ± 0.28
9 | CUUAAGCAAUAUUACGCAGU | -3.71 ± 0.46 | -2.56 ± 0.28
10 | GUAUAGCAAUAUUACGCGGG | -3.7 ± 0.27 | -2.23 ± 0.26
11 | GCCUAGCAAUAUUACGUGCG | -1.6 ± 0.075 | -0.358 ± 0.078
12 | UGACAGCAAUAUUACGAGGC | -2.35 ± 0.23 | -2.95 ± 0.43
13 | CACUAGCAAUAUUACGUCGU | -3.39 ± 0.11 | -1.76 ± 0.094
14 | GCUAAGCAAUAUUACGUGCC | -3.59 ± 0.24 | -2.35 ± 0.23
15 | UGGUAGCAAUAUUACGUCGU | -2.83 ± 0.15 | -1.59 ± 0.16
16 | UACAAGCAAUAUUACGAUUU | -1.76 ± 0.066 | -0.754 ± 0.084
17 | GUCGAGCAAUAUUACGAAGG | -3.61 ± 0.47 | 
18 | UCAGAGCAAUAUUACGUUUC | -3.15 ± 0.23 | -3.04 ± 0.38
19 | CUGAAGCAAUAUUACGGAUU | -4.16 ± 0.17 | -3.01 ± 0.26
20 | CUUGAGCAAUAUUACGCGAU |  | 1.12 ± 0.27
21 | UUAUAGCAAUAUUACGGUAC | -2.88 ± 0.28 | -2.45 ± 0.41
22 | CGCAAGCAAUAUUACGGUUU | -2.95 ± 0.17 | -2.53 ± 0.18

Row | Sequence | self-splicing fitness (ln) (30 °C) | self-splicing fitness (ln) (37 °C)
23 | CCAGAGCAAUAUUACGCGAU |  | -2.21 ± 0.33
24 | UUGCAGCAAUAUUACGCUAA | -1.12 ± 0.16 | -0.551 ± 0.16
25 | GUGCAGCAAUAUUACGAUCG | -1.95 ± 0.12 | -1.45 ± 0.1
26 | AGUUAGCAAUAUUACGGGUG | -3.86 ± 0.25 | -1.64 ± 0.21
27 | AUCAAGCAAUAUUACGCAGU | -2.61 ± 0.14 | -1.71 ± 0.15
28 | CUGAAGCAAUAUUACGAUUC | -3.13 ± 0.23 | -2.5 ± 0.29
29 | UAUUAGCAAUAUUACGAUCG | -0.211 ± 0.12 | 0.607 ± 0.18
30 | GGUGAGCAAUAUUACGAUCC |  | -0.766 ± 0.35
31 | GUAUAGCAAUAUUACGUCUG | -3.17 ± 0.17 | -1.08 ± 0.14
32 | UGUUAGCAAUAUUACGCCUA | -1.17 ± 0.13 | 0.387 ± 0.15
33 | UCGUAGCAAUAUUACGAUCG | -2.77 ± 0.23 | -0.597 ± 0.18
34 | CGGGAGCAAUAUUACGACCA | -1.08 ± 0.31 | 
35 | ACUUAGCAAUAUUACGUUGU | -2.9 ± 0.15 | -2.12 ± 0.15
36 | CCGCAGCAAUAUUACGAUGG | -4.91 ± 0.28 | -2.52 ± 0.2
37 | AAGGAGCAAUAUUACGUUUA | -2.95 ± 0.24 | -1.66 ± 0.16
38 | ACUGAGCAAUAUUACGUCCG | -2.79 ± 0.17 | -1.58 ± 0.17
39 | GGUCAGCAAUAUUACGGCGG | -0.828 ± 0.049 | -0.274 ± 0.065
40 | UCAAAGCAAUAUUACGCAUC | -3.83 ± 0.19 | -3.11 ± 0.31
41 | GAUUAGCAAUAUUACGGAGA | -2.78 ± 0.25 | -2.19 ± 0.24
42 | GUGAAGCAAUAUUACGAUAC | -0.501 ± 0.11 | -0.461 ± 0.14
43 | CCUGAGCAAUAUUACGAAUU | -2.96 ± 0.2 | -2.15 ± 0.31
44 | GAACAGCAAUAUUACGGUCC | -4.14 ± 0.25 | -0.683 ± 0.13
